Test results published in patent US20240182536A1 (MURAL ONCOLOGY, published 2024).
Positions count from the first letter of the chain named. Names may count otherwise. Like-named read-outs stand apart in the source and are kept apart here.

B1: Comparator 1 (human IL-18 variant M51K, K53S, Q56L, P57A, M60L, S105D, D110S, N111R) (ligand)
chain: YFGKLESKLSVIRNLNDQVLFIDQGNRPLFEDMTDSDCRDNAPRTIFIISKYSDSLARGLAVTISVKCEKISTLSCENKIISFKEMNPPDNIKDTKSDIIFFQRDVPGHSRKMQFESSSYEGYFLACEKERDLFKLILKKEDELGDRSIMFTVQNED
B2: IL-18 variant G3E, K53S (ligand)
chain: YFEKLESKLSVIRNLNDQVLFIDQGNRPLFEDMTDSDMRDNAPRTIFIISMYSDSQPRGMAVTISVKSEKISTLSSENKIISFKEMNPPDNIKDTKSDIIFFQRSVPGHDNKMQFESSSYEGYFLASEKERDLFKLILKKEDELGDRSIMFTVQNED
B3: IL-18 variant G3R, K53S (ligand)
chain: B2 chain with E3R
B4: IL-18 variant G3T, M60K (ligand)
chain: B2 chain with E3T, S53K, M60K
B5: IL-18 variant G3V, M60K, D157E (ligand)
chain: B2 chain with E3V, S53K, M60K, D157E
B6: Comparator 1-monospecific KiH (Fc fusion)
chain: B1 chain
B7: G3T/M60K-monospecific KiH (Fc fusion)
chain: B2 chain with E3T, S53K, M60K
B8: G3V/M60K-monospecific KiH (Fc fusion)
chain: B2 chain with E3V, S53K, M60K
B9: G3T/E6K/K53A-monospecific KiH (Fc fusion)
chain: B2 chain with E3T, E6K, S53A

Assays:
[1] = molecular target: T1, IL-18 receptors on HEK-Blue IL-18 reporter cells (InvivoGen) (UniProt Q13478 19-541; O95256 20-599); test: cell-based or functional assay
T1 sequence (looked up) 1: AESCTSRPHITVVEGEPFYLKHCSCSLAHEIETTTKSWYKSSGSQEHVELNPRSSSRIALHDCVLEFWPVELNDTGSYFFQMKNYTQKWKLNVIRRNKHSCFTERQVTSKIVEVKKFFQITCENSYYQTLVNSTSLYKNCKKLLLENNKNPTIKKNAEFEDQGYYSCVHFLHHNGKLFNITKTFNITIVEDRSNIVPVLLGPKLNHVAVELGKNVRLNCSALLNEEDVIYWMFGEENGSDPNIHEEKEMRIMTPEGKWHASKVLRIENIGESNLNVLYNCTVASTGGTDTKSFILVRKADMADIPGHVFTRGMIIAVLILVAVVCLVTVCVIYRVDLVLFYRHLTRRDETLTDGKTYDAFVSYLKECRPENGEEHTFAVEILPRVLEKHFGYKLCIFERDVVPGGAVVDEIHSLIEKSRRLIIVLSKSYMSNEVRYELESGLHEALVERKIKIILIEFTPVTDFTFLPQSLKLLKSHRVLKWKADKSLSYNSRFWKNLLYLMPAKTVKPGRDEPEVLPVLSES
T1 sequence (looked up) 2: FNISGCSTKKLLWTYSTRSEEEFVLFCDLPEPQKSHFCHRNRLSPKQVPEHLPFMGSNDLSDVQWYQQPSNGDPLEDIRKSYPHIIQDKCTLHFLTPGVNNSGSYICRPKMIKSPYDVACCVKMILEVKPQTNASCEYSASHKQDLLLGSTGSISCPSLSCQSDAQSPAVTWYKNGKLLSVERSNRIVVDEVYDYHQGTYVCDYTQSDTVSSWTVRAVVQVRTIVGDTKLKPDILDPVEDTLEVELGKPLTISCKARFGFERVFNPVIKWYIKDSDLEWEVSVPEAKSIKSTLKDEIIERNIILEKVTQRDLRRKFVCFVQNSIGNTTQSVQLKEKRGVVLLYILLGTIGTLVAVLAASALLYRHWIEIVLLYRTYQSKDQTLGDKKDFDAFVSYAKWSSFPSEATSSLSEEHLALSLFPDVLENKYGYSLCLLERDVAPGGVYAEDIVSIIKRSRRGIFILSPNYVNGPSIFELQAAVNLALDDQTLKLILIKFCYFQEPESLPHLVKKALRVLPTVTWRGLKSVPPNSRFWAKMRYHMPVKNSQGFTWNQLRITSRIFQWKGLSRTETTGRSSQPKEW

[2] = molecular target: T2, human IL-18 binding protein (IL-18BP) (human, UniProt O95998 31-194); test: cell-based or functional assay
T2 sequence (looked up): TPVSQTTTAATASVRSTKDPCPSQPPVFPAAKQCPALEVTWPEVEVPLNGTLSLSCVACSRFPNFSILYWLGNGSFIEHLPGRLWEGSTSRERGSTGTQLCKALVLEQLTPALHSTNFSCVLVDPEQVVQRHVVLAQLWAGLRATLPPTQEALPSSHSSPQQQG

[3] = molecular target: T3, IL-18 receptor (IL-18Rα and IL-18Rβ) (UniProt Q13478 19-541; O95256 20-599, limits assumed); test: cell-based or functional assay
T3 sequence (looked up) 1: T1 sequence (looked up) 1
T3 sequence (looked up) 2: T1 sequence (looked up) 2

[4] = molecular target: T1, IL-18 receptors on HEK-Blue IL-18 …; test: cell-based or functional assay; remark: listed apart in the source
[5] = molecular target: T2, human IL-18 binding protein (IL-18BP); test: cell-based or functional assay; remark: listed apart in the source
[6] = molecular target: T4, human IL-18 receptor alpha (IL-18Rα) (human, UniProt Q13478 19-329, limits assumed); test: Octet BLI
T4 construct: also called hu IL-18Ra; IL-18R alpha
T4 sequence (looked up): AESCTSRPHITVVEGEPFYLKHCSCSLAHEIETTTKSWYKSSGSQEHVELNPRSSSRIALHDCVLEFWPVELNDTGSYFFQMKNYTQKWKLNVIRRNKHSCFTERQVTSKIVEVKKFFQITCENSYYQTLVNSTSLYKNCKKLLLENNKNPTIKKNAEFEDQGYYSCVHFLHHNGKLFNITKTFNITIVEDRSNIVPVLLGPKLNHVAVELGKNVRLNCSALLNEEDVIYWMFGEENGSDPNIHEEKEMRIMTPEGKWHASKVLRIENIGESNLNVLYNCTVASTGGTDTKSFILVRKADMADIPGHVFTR
Procedure: (§1) Octet 96red instrument was used to determine affinities of IL18 proteins to BP or receptors. 5-10 ug/ml analyte proteins were used for loading on Sartorius tips (AHC or SA). […] 120-180 s loading, 200 s association and 800 s dissociation were used for kinetics. 3-7 data points were used to calculate affinities.

[7] = molecular target: T2, human IL-18 binding protein (IL-18BP); test: Octet BLI
Procedure: as §1

[8] = molecular target: T5, human IL-18R alpha/beta pair (IL-18Rab) (human, UniProt Q13478 19-329; O95256 20-356); test: Octet BLI
T5 construct: also called hu IL-18Rab
T5 sequence (looked up) 1: T4 sequence (looked up)
T5 sequence (looked up) 2: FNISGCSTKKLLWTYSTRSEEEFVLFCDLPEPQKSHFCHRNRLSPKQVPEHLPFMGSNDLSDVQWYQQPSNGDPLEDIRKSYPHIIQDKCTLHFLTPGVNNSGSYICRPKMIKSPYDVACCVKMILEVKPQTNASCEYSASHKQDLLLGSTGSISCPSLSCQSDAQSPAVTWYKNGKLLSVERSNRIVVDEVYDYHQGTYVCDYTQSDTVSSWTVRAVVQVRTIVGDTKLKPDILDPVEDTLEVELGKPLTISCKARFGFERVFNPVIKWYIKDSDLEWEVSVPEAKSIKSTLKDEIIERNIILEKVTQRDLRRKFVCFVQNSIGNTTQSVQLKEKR
Procedure: as §1

[9] = molecular target: T2, human IL-18 binding protein (IL-18BP); test: cell-based or functional assay; remark: listed apart in the source
[10] = molecular target: T3, IL-18 receptor (IL-18Rα and IL-18Rβ); test: cell-based or functional assay; remark: listed apart in the source
[11] = molecular target: T1, IL-18 receptors on HEK-Blue IL-18 …; test: cell-based or functional assay; remark: listed apart in the source
[12] = molecular target: T2, human IL-18 binding protein (IL-18BP); test: cell-based or functional assay; remark: listed apart in the source
[13] = molecular target: T1, IL-18 receptors on HEK-Blue IL-18 …; test: cell-based or functional assay; remark: listed apart in the source
[14] = molecular target: T2, human IL-18 binding protein (IL-18BP); test: cell-based or functional assay; remark: listed apart in the source
[15] = molecular target: T2, human IL-18 binding protein (IL-18BP); test: Octet BLI; remark: listed apart in the source
[16] = molecular target: T4, human IL-18 receptor alpha (IL-18Rα); test: Octet BLI; remark: listed apart in the source
[17] = molecular target: T2, human IL-18 binding protein (IL-18BP); test: Octet BLI; remark: listed apart in the source
[18] = molecular target: T5, human IL-18R alpha/beta pair (IL-18Rab); test: Octet BLI; remark: listed apart in the source
[19] = molecular target: T6, IL-18 receptors on HEK-Blue IL-18 reporter cells (UniProt Q13478 19-541; O95256 20-599, limits assumed); test: cell-based or functional assay
T6 sequence (looked up) 1: T1 sequence (looked up) 1
T6 sequence (looked up) 2: T1 sequence (looked up) 2

[20] = molecular target: T7, human IL-18 binding protein (human, UniProt O95998 31-194); test: cell-based or functional assay
T7 sequence (looked up): T2 sequence (looked up)

Binder | HEK-Blue Activity Assay Ec50 (pM), -hu IL-18BP [1] [pM] | HEK-Blue Activity Assay Ec50 (pM), +300 nM hu IL-18BP [2] [pM] | EC50 pM, IFN gamma expression in PBMCs [3] [pM] | HEK-Blue Ec50 (pM), -IL-18BP [4] [pM] | HEK-Blue Ec50 (pM), +IL-18BP (50 nM) [5] [pM] | Kd [6] [nM] | Kd [8] [nM] | EC50 pM, IFN gamma expression in PBMCs, + 300 nM BP [9] [pM] | EC50 pM, IFN gamma expression in PBMCs, no BP [10] [pM] | HEK-Blue EC50 pM, NO BP (50 nM BP run) [11] [pM] | HEK-Blue EC50 pM, NO BP (300 nM BP run) [11] [pM] | Fold Change (BP/NO BP), 50 nM BP [12] [fold] | Fold Change (BP/NO BP), 300 nM BP [12] [fold] | HEK-Blue EC50 pM, +50 nM BP [12] [pM] | HEK-blue EC50 (pM) + 300 nM BP [12] [pM] | HEK-blue EC50 (pM) - IL-18BP [19] [pM] | HEK-blue EC50 (pM) + 300 nM IL-18BP [20] [pM] | other results
B1 | 0.08 | 0.09 | 0.093 | 0.15 | 0.22 | 16 | 0.43 | 1.82 | 1.22 | 0.02 | 0.13 | 2.5 | 0.83 | 0.04 | 0.11 | – | – | binding result [7]: no binding
B2 | – | – | 517 | 2.69 | 4.41 | – | – | – | – | – | – | – | – | – | – | – | – | HEK-Blue Activity Assay Ec50 (pM), -hu IL-18BP [13]: 2.69 pM; HEK-Blue Activity Assay Ec50 (pM), +50 nM hu IL-18BP [14]: 4.41 pM; Kd [15]: 396 nM; koff [15]: 0.0311 s⁻¹; kon [15]: 78500 M⁻¹ s⁻¹; Kd [16]: 8.92 µM; Kd [17]: 396 nM; Kd [18]: 0.31 nM
B3 | – | – | 73.8 | 0.31 | 1.84 | – | – | – | – | – | – | – | – | – | – | – | – | HEK-Blue Activity Assay Ec50 (pM), -hu IL-18BP [13]: 0.31 pM; HEK-Blue Activity Assay Ec50 (pM), +50 nM hu IL-18BP [14]: 1.84 pM; Kd [15]: 4 nM; koff [15]: 0.00143 s⁻¹; kon [15]: 356000 M⁻¹ s⁻¹; Kd [16]: 0.197 µM; Kd [17]: 4.03 nM; Kd [18]: 0.09 nM
B4 | 0.76 | 2.4 | – | – | – | 555 | 0.02 | 117 | 214 | 0.71 | 0.76 | 0.99 | 3.14 | 0.7 | 2.4 | – | – | Kd [7]: 779 nM
B5 | 0.16 | 0.6 | – | – | – | 43 | 0.13 | 13 | 6.61 | 0.08 | 0.16 | 1.74 | 3.74 | 0.14 | 0.6 | – | – | Kd [7]: 87 nM
B6 | – | – | – | – | – | – | – | – | – | – | – | – | – | – | – | 0.03 | 0.03 | –
B7 | – | – | – | – | – | – | – | – | – | – | – | – | – | – | – | 0.27 | 2.64 | –
B8 | – | – | – | – | – | – | – | – | – | – | – | – | – | – | – | 0.06 | 2.01 | –
B9 | – | – | – | – | – | – | – | – | – | – | – | – | – | – | – | 0.04 | 1.16 | –
